According to the nanobody polyreactivity screen of Harvey et al. (2022):

Test: yeast display, Sf9 membrane polyspecificity reagent, FACS + sequencing; frameworks hold sequencing errors
Procedure, shortened: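 Nanobodies came from a synthetic yeast display library in Saccharomyces cerevisiae BJ5465, induced with galactose for 36–48 hours and stained for 1 hour at 4 °C with 10% biotinylated, detergent-solubilized Sf9 membrane reagent. Cells were enriched on streptavidin microbeads and then FACS-sorted, with low and high (top ~1%) gates set on anti-HA fluorescence for expression and streptavidin fluorescence for reagent binding. Each polyreactivity label reflects the gate a clone came from. Genes were amplified by colony PCR, sequenced by MiSeq 2 × 250 and filtered by CDR length.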

Sequence	polyreactivity (PSR sort gate)
QVQHVDSGGGLVQAGGSLRLSCAASGSTFGYNAMGWYRQAPGKERELVAAITFSGDSTSYADSVKGRFTISRDNAKNSVYLQMNSLKPEDTAVYYCAVDTWNGDGSGYSLEFEYWGQGTQVTVSS	low polyreactivity
QVQLEESGGGLVQAGGSLRLSCAASGSIFEGNGMGWYRPAPGKERELVAAITFRSGSTYYADSVKGRFTISRDNAKNTVYLQMNSLKPEDTAVYYCAADEYYKVSAYDFWGQGTQVTVSS	low polyreactivity
QVQLVESGGGLVQAGGSLRLSCAASGFTFTRNAMGWSRPAPGKERELVAAISKRGGTTYYADSVKGRFTISRDNAKNTVYLQMNSLKPEDTAVYYCAKDGGITGGYWGQGTQVSVSS	high polyreactivity
QVQLVETGGGLVQAGGSLRLSCAASGSTFYRYAMGWYRQAPGKERELVAAITRSGGGTHYADSVKGRFTISRDNAKNTVYLQMNSLKPEDTAVYYCAKRQSGYRYDYWGQGTQVTVSS	low polyreactivity
QVQLVESGGGLVQAGGSLRLSCAASGSTFYENAKGWYRQAPGKERELVAGISRGGGSTYYADSVKGRFTISRDNAKNTVYLQMNSLKPEDTAVYYCARRPRYGVEYNYWGQGTQVTVSS	low polyreactivity
QVQLVESGGGLVQAGGSLRLSCAASGFIFRRYAMGWYRQAPGKERELVAAITWSGGSTYYADSVKGRFTISRDNAKNTVYLQMNSLKPEDTAVYYCNRASLPSVWGYDYWGQGTQVTVSS	high polyreactivity
QVQLVESGGGLVQAGGSLRLRGAASGSTFYRYAMGWSRQAPGKERELVAAISWSAGRTYYADSVKGRFTISRYTAKNTVYLQMNSLKPEDTAVYYCAARGWYKSDYWGQGTQVTVSS	low polyreactivity
LVQLVQSGGGLVQAGGSLRLSCAASGRTFIGYAMGWYRQAPGKERELVAAITSDGGTNYADSVKGRFTISRDNAKNTVNLLMNSLKPEDTAVYDCAARRRVSYHLYGYWGQGTQVTVSS	high polyreactivity
QVQLVESGGGLVQAGGSLRLSCAASGSTFVTYAMGWYRQAPGKERELVASISRGGSTKYADSVKGRFTISRDNAKNTVYLQMNSLKPEDTAVYYCAAKAKNYRLGPFDYWGQGTQVTVSS	low polyreactivity
QVQLVESGGGLVQAGGSLRLSCAASGFTFGYYAMGWYRQAPGKERELVAAINWSGVNTNYADSVKGRFTISRDNAKNTVYLQMNSLKPEDTAVYYCAADAGYDGYGYWGQGTQVTVSS	low polyreactivity
QVQLVESAGGLVQAGGRLRLSCAASGFTFRYYAMGWYRQAPGKERELVATITPGGSTNYADSVKGRFTISRDNAKNTVYLEMNSLKPEDTAVYYCAASLYRVIAFGYWGQGTQVTVSS	high polyreactivity
QVQLVESGGGLVQAGGSLRLSCAASGSIFKYYTMGWYRQAPGKERELVAAISGSGSRTYYADSVKGRFTISRDNAKNTVYLQMNSLKPEDTAVYYCAAEVKDSFVNAKSYYWGQGTQVTVSS	high polyreactivity
QVQLQESGGGLVQACGSLRLSCAASGSISNGDYMGWYRQAPGKEREFVAGINTGSITYYADSVKGRFTISRDNAKNTAYLQMNSLKPEDTAVYYCAATFDAQFREPKGLYYWGQGTQVTVSS	low polyreactivity
QVQLVESGGGLVQAGGSLRLSCAASGSIFDVNAMGWYRQAPGKESELVAAISDSGGSTYYADSVKGRFTISRDNAKTTVYLQMTSLKQEDTAVYYCNADWSWYNYYDFDYWGQGTQVTVSS	low polyreactivity
QVQLVESGGGLVQAGGSLRLSCAASGSIFGYYAMGCYRQAPGKERELVAAITNGGSTSYADSVKGRFTISRDNAKNTVDLQMNSLKPEETSVYYCNARFKRLFGRADDYWGQGTQVTVSS	low polyreactivity
QVQLVESGGGLVQAGGSLRLSCAASGLTFVYYAMGWYRQAPGKERELVATISWDGGSTYYADSVKGRFTISRDNAKNTVYLQLNRLKPEDTAVYYCNKYVFDRYIYETEYDYWGQGTQVTVSS	high polyreactivity
QVQLVESGGGLVQAGGSLRLSSAASGFTFYWYAMGWYRQAPGKEREFVAAIDQSGGSTYYADSVKGRFTISRDNAKNTVYLQMNSLKPEDTAVYYCAARYILWDGYSWTEFDYWGQGTQVTVSS	low polyreactivity
QVQLVESVGGLVQAGVSLPLSCAASGFTFSYNAMGWYIQAPGKERELVATIRSSGGSTNYADSVKGRFTISRDNAKNTVYVQMNSLKPEDTAVYYCAADFSYYSTYDYWGQGTQVTVSS	low polyreactivity
QVQLVESGGGLVQAGGSLRLSCAASGRIFYDNAMGWYRQAPGKERELVAAIRIGGSTNYADSVKGRFTISRDNAKNTVYLQMNSLKPEDTAVYYCNGSDNPDSYYPDSVWGDSWGQGSQVTVSS	low polyreactivity
QVQLVESGGGLVHAGGSLRLSCAPSGSIFTPYAMGWYRQAPAKDRELVADNTYRGGSTYYADSVKGRFTISRDNAKNSVYLQINSLKAEDSAVYYCNADVFTDYRHTRDDYWGQGTQVTVSS	low polyreactivity
QVQLVESGGGLVQAGGSLRLSCAASGLTIGSNVMGWYRQAPGKERELVAAISQSGGRTYYADSVKGRFTISRDNAKNTVYLQMNSLKQEDTAVYYCAKRLRSFYGRPMGDYWGQGTQVTVSS	high polyreactivity
QVQLVESGGGLVQAGGSLRLSCAASGRTFQSNAMGWYRQAPGKERELVAAITNGGNTNYADSVKGRFTISRDNAKNTVYLQMNSLKPEDTAVYYCAADRLYVRYGYWGQGTQVTVSS	low polyreactivity

Sequence	polyreactivity (PSR sort gate)
QVQLVESGGGLVQAGGSLRLSCAASGRTFHRYTMGWYRQAPGKERELVASISRSGGSTYYADSVKGRFTISRDNAKNTVYLQMNSLKPEDTAVYYCAARVSRRGTWYDYWGQGTQVTVSS	high polyreactivity
QVQLVESGGGLVQAGGSLRISCAASGRTLGGYTMGWYRQAPGKERELVAAITGSGSNTYYADSVKGRFTISRDNAKNTVYLQMNSLKPEDTAVYYCAAPYSYRTWYPYGYWGQGTQVTLSS	high polyreactivity
QVQLVESGGGLVQAGGSLRLSCAASGRTFLSYTMGWYRQAPGKERELVAAITTSGGSTNYADSVKGRFTISRDNAMNNVYLQMNSLKPEDTAVYYCADEWSVYFNDPRSDYWGQGTQVTVSS	high polyreactivity
QVQLVESGGGLVQAGGSLRLSCAASGRTFAYNAMGWYIQAPGKERELVASITSGGSTNYADSVKGRFTISRDNAKNTVYLQMNSLKPEDTAVYYCNKDGKYHRVLYDYWGQGTQVTVSS	low polyreactivity
QVQLVESGGGLVQAGGSLRLSCAASGRSFYLYAMGWYRQAPGKERELVAGITSGGRTNYADSVKGRFTISRDNAKNTVYLQMNSLKPEDTAVYYCAAGSRRYKYDYWGQGTQVTVSS	high polyreactivity
QVQLVESGGGLVQAGGSLRLSCAASGSTFLKNAMGWYRQAPGKERELVAAISYSTTRTYYADSVKGRFTISRDNAKNTVYLQMNSLKPEDTAVYYCNKASYWGSGFDYWGQGTQVTVSS	low polyreactivity
QVQLVESGGGLVQAGGSLRLSCAASGGTFSKNAMGWYRQAPGKERELVADIRSGGSTYYADSVKGRFTISRDNAKNTVYLQMNSLKPEDTAVYYCNADGDVNEYDYWGQGTQVTVSS	low polyreactivity
QVQLVESRGGLVQAGGSLRLSCAASGSTFGQYPMGSYRQEPGKERELVATITSPGSTNYADSVKGRFTISRDNAKNTVYFQMNSLKPEDSAVYYCNAVTGYWDGTEARQPYDYWGQGTQVTVSS	low polyreactivity
QVQLVESGGGLVQAGGSLRLSCAASGSILFHYAMGWYRQAPGKERELVAAISRRGGSTYYADSVKGRFTISRDNAKNTVYFQMNSLKPEDNAVYYCAKYPSAYVDSDVTYDMDYWGQGTQVTVSS	low polyreactivity
QVQLVESGGGLVQAGGSLRLSCAASGRIFTVYALGWSRQAPGKERELVAAISRGRSTYADSVKGRFTISRDNAKNTVYLQLNSLKPEDTGVYYCAAVNFRKGEDYWGQGTQVTVSS	high polyreactivity
QVQLVESGGGLVQAGGSLRLSCAASGVIFYDYAMGWYRQAPGKERELVAAISSGGSTNYADSVKGRFTISRDNAKNTVYLQMNSLKPEDTAVYYCAADDRSYATWKRDYDYWGQGTQVTVSS	low polyreactivity
QVQLVESGGGLVQAGGSLRLSCAASGSTFEYNAMGWYRQAPGKERELVASSTNYADSVKGRFTISRDNAKNTVYLQMNSLKPDDTEVYYCARDRYYTREWYWYRHDHWGQGTQVTVSS	low polyreactivity
QFQLVESGGGLVQAGGSLRLSCAASGSIFDAYAMGWYRQAPGKERELVPAITYSGGSTYYADSVKGRFTISRDNAKNTVYLQMNSLKPEDTAVYYCNTDSRVRTWFRAFTFDSWGQGTQVTVSS	low polyreactivity
QVQHVESGGGLVQAGGSLRLSCAASGRTFGFNAMGWYRQATGKERELVAAITYSGGRTYYADSVKGRFTISRDNAKNTVYLHMNSLKPEDTAVYFCAALTRRVKKYDYLGQGTQVTVSS	high polyreactivity
QVQLVESGGGLVQAGGSLRLSCAASGRIFYPYAMGWYRQAPGKEREVVAGITSSDDTTYYADSVKGRFTISRDNAKNTVYLQMNSLKPEDTAVYYCNTSVDRGLGYWGQGTQVTVSS	low polyreactivity
QVQLVESGGGLVQAGGSLRLSCAASGRTFKWYAMGWYRQAPGKERELVAAITTGGNTYYADSVKGRFTISRDNAKNTVYLQMNSLTPEDTAVYYCARVPTQGYNPYEYWGQGTQVTVSS	low polyreactivity
QVQLVESGGGLVQAGGSLRLSCAASGRIFGIYAMGWHRQAPGKERELVASITDGTITNYADSVKGRFTISRDNAKNTVYLQMNSLKPEDTAVYYCAAGTQAHAYVVRPIEMDYSGQGTQVTVSS	low polyreactivity
QVQLVESGGGLVQAGGSLRLSCAASGRTFGTNAMGWYRQAPGKERELVAAISRRGGSTYYADSVKGRFTISRDNAKNTVYLQMNSLKPEDTAVYYCNVVTKFTGRGYDYWGQGTQVTVSS	high polyreactivity
QVQLVESGGGLVQAGGSLRLSCAASGSTFRRNAMGWYRQAPGKERELVAAISTSGGTTYYADSVKGRFTISRDNAKNTVYLQMNSLKPEDTAVYYCNKGGISGRDYWGLGTQVTVSS	high polyreactivity
QVQLVESGGGLDQAGGSLRLSCAASGSISLNAMGWYRQGPGKEREFVAVITWRVGDTYYADSVKGRITISRDNAKNTVYLQLNSRKPEDSAVYYCAADDLYYQGIYRGSEFDYWGQGTQVTVSS	low polyreactivity
QGQLVESGGGLVQAGGSLRLSCAASGRIFVANAMGWYRQAPGKERELVAAISGRGSRTYYADSVKGRFTISRDNAKKTVYIQMNSLKPEETAVYSCAARYRYDGRYDYWGPGTQVTVSS	high polyreactivity
